One block for each molecule: values may come before it.
Key:
ephrin-B2 (Homo sapiens) = ephrin-B2 (Homo sapiens) (UniProt P52799); settings: cited from earlier work
ephrin-A4 (Homo sapiens) = ephrin-A4 (Homo sapiens) (UniProt P52798); settings: cited from earlier work
ephrin-A5 (Homo sapiens) = ephrin-A5 (Homo sapiens) (UniProt P52803); settings: cited from earlier work
[1] = biological target: V5-EphA2 (pcDNA3.2-V5-EphA2) (UniProt P29317); assay: co-immunoprecipitation with densitometric quantification; settings: n = 3; parent: est. 1.0; read off a plot
Chain of V5-EphA2 (pcDNA3.2-V5-EphA2) (P29317 24-976): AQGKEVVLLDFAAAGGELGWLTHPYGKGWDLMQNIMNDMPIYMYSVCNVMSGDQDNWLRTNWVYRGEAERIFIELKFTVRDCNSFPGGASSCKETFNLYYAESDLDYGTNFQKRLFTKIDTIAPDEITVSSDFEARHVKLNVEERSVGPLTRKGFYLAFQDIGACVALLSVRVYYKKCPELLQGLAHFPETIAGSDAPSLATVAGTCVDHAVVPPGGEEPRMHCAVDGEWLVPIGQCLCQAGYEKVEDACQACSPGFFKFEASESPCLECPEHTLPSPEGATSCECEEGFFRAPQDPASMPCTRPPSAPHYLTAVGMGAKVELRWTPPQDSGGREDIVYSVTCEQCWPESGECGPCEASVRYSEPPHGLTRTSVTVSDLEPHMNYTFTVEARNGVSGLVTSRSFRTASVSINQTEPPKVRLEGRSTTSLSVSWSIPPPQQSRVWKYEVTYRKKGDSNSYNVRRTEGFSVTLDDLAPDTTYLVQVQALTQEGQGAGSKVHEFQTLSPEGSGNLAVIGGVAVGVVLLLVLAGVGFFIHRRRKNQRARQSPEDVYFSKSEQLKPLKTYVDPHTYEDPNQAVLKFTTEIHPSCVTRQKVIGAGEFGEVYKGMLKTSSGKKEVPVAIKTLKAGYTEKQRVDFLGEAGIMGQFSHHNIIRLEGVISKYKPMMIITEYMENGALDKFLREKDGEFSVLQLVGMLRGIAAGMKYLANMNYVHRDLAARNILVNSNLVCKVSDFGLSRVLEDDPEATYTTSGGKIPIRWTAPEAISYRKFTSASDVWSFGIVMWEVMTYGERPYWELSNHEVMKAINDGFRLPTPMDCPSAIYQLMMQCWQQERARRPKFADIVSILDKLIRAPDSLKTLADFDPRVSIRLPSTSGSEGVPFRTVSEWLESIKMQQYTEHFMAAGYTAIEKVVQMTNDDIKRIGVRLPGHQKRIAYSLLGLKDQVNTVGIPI

[2] = biological target: T1, fc-fusion protein of the EphA2 extracellular domain (UniProt P29317 24-537); assay: ELISA; plates coated with ephrin-A5 Fc or ephrin-B2 Fc (3 μg/ml, 50 mM carbonate buffer pH 9.5, overnight at 4 °C); diluted EphA2 Fc analyte 1 h at room temperature; detection with biotinylated 1F7 mAb and UltraStreptavidin-HRP, OD492 nm (the results say that the EphA2 Fc was immobilised); settings: both partners purified
T1 construct: EphA2 extracellular domain; Detected in the ELISA with biotinylated 1F7 mAb; also called EphA2 Fc
T1 sequence (P29317 24-537): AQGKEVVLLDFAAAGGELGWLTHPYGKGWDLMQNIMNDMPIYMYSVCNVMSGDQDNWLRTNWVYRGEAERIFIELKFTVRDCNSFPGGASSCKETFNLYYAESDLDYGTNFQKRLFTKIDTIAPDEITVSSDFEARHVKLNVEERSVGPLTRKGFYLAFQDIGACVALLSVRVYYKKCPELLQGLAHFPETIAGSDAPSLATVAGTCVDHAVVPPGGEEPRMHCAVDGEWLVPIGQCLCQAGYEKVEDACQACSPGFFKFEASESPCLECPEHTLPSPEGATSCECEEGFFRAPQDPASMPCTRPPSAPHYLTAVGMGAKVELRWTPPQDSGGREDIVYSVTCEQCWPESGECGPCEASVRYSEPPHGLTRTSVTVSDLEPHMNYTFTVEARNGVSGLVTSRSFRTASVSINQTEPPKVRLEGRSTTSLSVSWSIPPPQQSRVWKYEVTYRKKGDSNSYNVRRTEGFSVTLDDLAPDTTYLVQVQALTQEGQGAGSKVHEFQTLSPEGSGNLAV

Chain of ephrin-A4 (Homo sapiens) (P52798 26-170): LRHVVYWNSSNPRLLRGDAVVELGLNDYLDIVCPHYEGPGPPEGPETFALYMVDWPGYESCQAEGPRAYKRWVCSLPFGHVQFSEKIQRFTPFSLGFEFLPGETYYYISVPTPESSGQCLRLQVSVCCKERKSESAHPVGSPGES

Molecule: EphA4 (from UniProt P54764)
Kd (ephrin-B2 (Homo sapiens)): 10800 nM
Kd (ephrin-A4 (Homo sapiens)): 36 nM
Kd (ephrin-A5 (Homo sapiens)): 360 nM

ratio to parent [1]: 0.98
Molecule: myc-tagged pendrin (pCMV-Myc-pendrin) (from UniProt O43511) F355L

Kd [2]: 2 nM
B1: ephrin-A5 Fc fusion protein (Fc fusion, UniProt P52803 21-203, looked up)
chain: QDPGSKAVADRYAVYWNSSNPRFQRGDYHIDVCINDYLDVFCPHYEDSVPEDKTERYVLYMVNFDGYSACDHTSKGFKRWECNRPHSPNGPLKFSEKFQLFTPFSLGFEFRPGREYFYISSAIPDNGRRSCLKLKVFVRPTNSCMKTIGVHDRVFDVNDKVENSLEPADDTVHESAEPSRGEN
notes: ephrin-A5

Kd [2]: 85 nM
B2: soluble ephrin-B2 extracellular domain-Fc fusion protein (Fc fusion, UniProt P52799 28-229, looked up)
chain: IVLEPIYWNSSNSKFLPGQGLVLYPQIGDKLDIICPKVDSKTVGQYEYYKVYMVDKDQADRCTIKKENTPLLNCAKPDQDIKFTIKFQEFSPNLWGLEFQKNKDYYIISTSNGSLEGLDNQEGGVCQTRAMKILMKVGQDASSAGSTRNKDPTRRPELEAGTNGRSSTTSPFVKPNPGSSTDGNSAGHSGNNILGSEVALFA
notes: ephrin-B2 extracellular domain; also called ephrin-B2-Fc; ephrin-B2 Fc chimera protein
